Results taken from the supplement of paper PMC6755084.

B1: F1*; the commonest letter at each place (parent)
chain: GAGACCGCAACTGAAAAGTTGTTATCACTTGTCGTAAGACACTTTGGATGGGTTGAAGTTCTGCACGTAGAAGCAAAAGGC

Variants of: B1
Assay: fraction ligated after 30 min (ligated reads / total reads); higher = more ligase activity
Details: with F1*sub RNA substrate (template-directed ligation), 42 °C
In short: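 Ligase ribozyme variants were made from oligo-pool templates by PCR amplification, T7 transcription and gel purification. After gel separation, ligated and unligated bands were reverse transcribed with barcoded primers and sequenced on a MiSeq, with core bases filtered at quality ≥20. The fraction ligated for each variant was the number of ligated reads divided by total reads.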
Work on C28T G47T yielded a fraction ligated of 0.3. C28T G50A gave a fraction ligated of 0.352. C28T G50C showed a fraction ligated of 0.323. C28T G50T gave a fraction ligated of 0.747. With C28T G55A the fraction ligated was 0.801. For C28T G55C, the fraction ligated was 0.221. C28T G55T gave a fraction ligated of 0.765. Variant C28T T29A has a fraction ligated of 0.823. C28T T29C showed a fraction ligated of 0.789. With C28T T29G the fraction ligated was 0.825. C28T T30A was tested, and the fraction ligated was 0.814. In the case of C28T T30C, the fraction ligated is reported as 0.805. For C28T T30G, the fraction ligated was 0.791. C28T T32A was tested, and the fraction ligated was 0.822. Work on C28T T32C yielded a fraction ligated of 0.753. For C28T T32G, the fraction ligated was 0.8. With C28T T35A the fraction ligated was 0.802. C28T T35C was tested, and the fraction ligated was 0.789. Variant C28T T35G has a fraction ligated of 0.785. Work on C28T T43A yielded a fraction ligated of 0.803. For C28T T43C, the fraction ligated was 0.781. With C28T T43G the fraction ligated was 0.8. C28T T44A showed a fraction ligated of 0.816. C28T T44C showed a fraction ligated of 0.783. Work on C28T T44G yielded a fraction ligated of 0.813. With C28T T45A the fraction ligated was 0.532. In the case of C28T T45C, the fraction ligated is reported as 0.284. C28T T45G was tested, and the fraction ligated was 0.0616. C28T T49A was tested, and the fraction ligated was 0.743. In the case of C28T T49C, the fraction ligated is reported as 0.749. With C28T T49G the fraction ligated was 0.811. Work on T29A yielded a fraction ligated of 0.848. In the case of T29A A36C, the fraction ligated is reported as 0.855. T29A A36G showed a fraction ligated of 0.853. Work on T29A A36T yielded a fraction ligated of 0.847. T29A A37C was tested, and the fraction ligated was 0.849. With T29A A37G the fraction ligated was 0.839. Work on T29A A37T yielded a fraction ligated of 0.848. In the case of T29A A39C, the fraction ligated is reported as 0.82. T29A A39G showed a fraction ligated of 0.845. T29A A39T showed a fraction ligated of 0.831. T29A A41C showed a fraction ligated of 0.801. For T29A A41G, the fraction ligated was 0.816. T29A A41T was tested, and the fraction ligated was 0.827. For T29A A48C, the fraction ligated was 0.761. Work on T29A A48G yielded a fraction ligated of 0.803. T29A A48T showed a fraction ligated of 0.801. T29A A56C gave a fraction ligated of 0.799. T29A A56G was tested, and the fraction ligated was 0.789. With T29A A56T the fraction ligated was 0.827. Variant T29A A57C has a fraction ligated of 0.818. With T29A A57G the fraction ligated was 0.818. T29A A57T showed a fraction ligated of 0.813. Variant T29A C33A has a fraction ligated of 0.852. Variant T29A C33G has a fraction ligated of 0.868. T29A C33T gave a fraction ligated of 0.859. In the case of T29A C40A, the fraction ligated is reported as 0.851. Variant T29A C40G has a fraction ligated of 0.854. T29A C40T was tested, and the fraction ligated was 0.857. T29A C42A gave a fraction ligated of 0.86. For T29A C42G, the fraction ligated was 0.867. With T29A C42T the fraction ligated was 0.826. With T29A G31A the fraction ligated was 0.844. For T29A G31C, the fraction ligated was 0.842. With T29A G31T the fraction ligated was 0.845. For T29A G34A, the fraction ligated was 0.852. With T29A G34C the fraction ligated was 0.816. Work on T29A G34T yielded a fraction ligated of 0.842. In the case of T29A G38A, the fraction ligated is reported as 0.85. With T29A G38C the fraction ligated was 0.851. Work on T29A G38T yielded a fraction ligated of 0.87. T29A G46A was tested, and the fraction ligated was 0.808. Work on T29A G46C yielded a fraction ligated of 0.779. With T29A G46T the fraction ligated was 0.793. T29A G47A was tested, and the fraction ligated was 0.804. T29A G47C gave a fraction ligated of 0.249. For T29A G47T, the fraction ligated was 0.473. Variant T29A G50A has a fraction ligated of 0.295. T29A G50C showed a fraction ligated of 0.195. T29A G50T gave a fraction ligated of 0.585. For T29A G55A, the fraction ligated was 0.84. For T29A G55C, the fraction ligated was 0.79. In the case of T29A G55T, the fraction ligated is reported as 0.788. For T29A T30A, the fraction ligated was 0.86. T29A T30C showed a fraction ligated of 0.856. Variant T29A T30G has a fraction ligated of 0.828. T29A T32A gave a fraction ligated of 0.869. With T29A T32C the fraction ligated was 0.774. T29A T32G showed a fraction ligated of 0.842. With T29A T35A the fraction ligated was 0.821. For T29A T35C, the fraction ligated was 0.828. Work on T29A T35G yielded a fraction ligated of 0.834. T29A T43A showed a fraction ligated of 0.84. In the case of T29A T43C, the fraction ligated is reported as 0.804. In the case of T29A T43G, the fraction ligated is reported as 0.85. T29A T44A showed a fraction ligated of 0.833. Work on T29A T44C yielded a fraction ligated of 0.825. Work on T29A T44G yielded a fraction ligated of 0.812. In the case of T29A T45A, the fraction ligated is reported as 0.774. Work on T29A T45C yielded a fraction ligated of 0.651. Work on T29A T45G yielded a fraction ligated of 0.475. T29A T49A was tested, and the fraction ligated was 0.784. T29A T49C was tested, and the fraction ligated was 0.66. In the case of T29A T49G, the fraction ligated is reported as 0.789. T29C was tested, and the fraction ligated was 0.824. T29C A36C showed a fraction ligated of 0.821. T29C A36G was tested, and the fraction ligated was 0.841. For T29C A36T, the fraction ligated was 0.834. For T29C A37C, the fraction ligated was 0.828. T29C A37G was tested, and the fraction ligated was 0.824. T29C A37T showed a fraction ligated of 0.833. T29C A39C gave a fraction ligated of 0.819. With T29C A39G the fraction ligated was 0.824. For T29C A39T, the fraction ligated was 0.807. For T29C A41C, the fraction ligated was 0.768. T29C A41G was tested, and the fraction ligated was 0.766. Variant T29C A41T has a fraction ligated of 0.788. In the case of T29C A48C, the fraction ligated is reported as 0.745. Variant T29C A48G has a fraction ligated of 0.389. In the case of T29C A48T, the fraction ligated is reported as 0.592. Variant T29C A56C has a fraction ligated of 0.758. Work on T29C A56G yielded a fraction ligated of 0.788. For T29C A56T, the fraction ligated was 0.795. T29C A57C showed a fraction ligated of 0.797. T29C A57G was tested, and the fraction ligated was 0.855. For T29C A57T, the fraction ligated was 0.774. In the case of T29C C33A, the fraction ligated is reported as 0.824. Variant T29C C33G has a fraction ligated of 0.827. For T29C C33T, the fraction ligated was 0.816. T29C C40A gave a fraction ligated of 0.791. In the case of T29C C40G, the fraction ligated is reported as 0.824. In the case of T29C C40T, the fraction ligated is reported as 0.818. With T29C C42A the fraction ligated was 0.85. In the case of T29C C42G, the fraction ligated is reported as 0.818. Work on T29C C42T yielded a fraction ligated of 0.828. T29C G31A gave a fraction ligated of 0.796. T29C G31C gave a fraction ligated of 0.804. In the case of T29C G31T, the fraction ligated is reported as 0.755. T29C G34A gave a fraction ligated of 0.827. Variant T29C G34C has a fraction ligated of 0.793. In the case of T29C G34T, the fraction ligated is reported as 0.823. Variant T29C G38A has a fraction ligated of 0.803. With T29C G38C the fraction ligated was 0.828. T29C G38T was tested, and the fraction ligated was 0.816. With T29C G46A the fraction ligated was 0.804. In the case of T29C G46C, the fraction ligated is reported as 0.775. Variant T29C G46T has a fraction ligated of 0.779. T29C G47A was tested, and the fraction ligated was 0.793. T29C G47C gave a fraction ligated of 0.264. Variant T29C G47T has a fraction ligated of 0.508. In the case of T29C G50A, the fraction ligated is reported as 0.116. Work on T29C G50C yielded a fraction ligated of 0.112. T29C G50T was tested, and the fraction ligated was 0.41. For T29C G55A, the fraction ligated was 0.815. T29C G55C showed a fraction ligated of 0.638. Work on T29C G55T yielded a fraction ligated of 0.765. T29C T30A showed a fraction ligated of 0.796. Work on T29C T30C yielded a fraction ligated of 0.782. Variant T29C T30G has a fraction ligated of 0.805. Work on T29C T32A yielded a fraction ligated of 0.804. T29C T32C showed a fraction ligated of 0.764. With T29C T32G the fraction ligated was 0.794. T29C T35A was tested, and the fraction ligated was 0.843. Variant T29C T35C has a fraction ligated of 0.801. With T29C T35G the fraction ligated was 0.831. T29C T43A was tested, and the fraction ligated was 0.839. In the case of T29C T43C, the fraction ligated is reported as 0.802.
